Experimental data published in US20210162067A1, “Composition and Methods of Controllable Co-Coupling Polypeptide Nanoparticle Delivery System for Nucleic Acid Therapeutics” (SIRNAOMICS, INC., priority 2018, published 2021).
No end group written: not given here.

Type: physicochemical
Procedure: The structure of the HKC2 was characterized by HPLC and mass spectroscopy, and a major peak at retention time at 8.053 min with a purity 90.0% was observed by RPHPLC. In the ESI-MS spectrum (FIG. 2B), a molecular ion peak was observed as double charged ion [M+2H]^2+. Similarly, triple charged, 4+ and 5+ species were also observed. It provided a molecular weight of 2683 Da, which is in good agreement with the theoretical value. […] This is a plus for its formulation with the siRNA in aqueous medium.

Substance: K(HHHK)4CSSC (KHHHKHHHKHHHKHHHKCSSC; also: branched peptide, cross-linked through intermolecular disulfide bonds between cysteines into polymer (HKC2))
- solubility in water: readily soluble in water
